Data from patent US20220396632A1 (VERSEAU THERAPEUTICS, published 2022).

T1: Biotin PSGL-1(42-62) D52A peptide (C-terminal Lys-biotin)
T1 peptide: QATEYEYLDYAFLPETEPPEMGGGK

T2: Biotin PSGL-1(42-62) P55A peptide (C-terminal Lys-biotin)
T2 peptide: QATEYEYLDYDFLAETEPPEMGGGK

T3: Biotin Y46,48,51(SO3) PSGL-1(42-62) peptide (human, sulfotyrosine at Y46, Y48 and Y51; C-terminal Lys-biotin)
T3 construct: also called fully sulfated N-terminal PSGL-1 peptide
T3 peptide: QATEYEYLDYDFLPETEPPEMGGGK

T4: Biotin PSGL-1(42-62) peptide, unmodified (human, C-terminal Lys-biotin)
T4 construct: Residues 42-62 followed by GGGK-biotin; also called WT; wild-type
T4 peptide: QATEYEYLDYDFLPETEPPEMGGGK

T5: PSGL-1(42-62) N-terminal peptide, sulfation state not told at the place (human, not fully specified; sulfation of Y46, Y48, Y51 not stated for these table columns)
T5 peptide: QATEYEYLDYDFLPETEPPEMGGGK

T6: Recombinant human PSGL-1(ECD)-hFc1 (R&D Systems, Cat. 3345-PS) (human, UniProt Q14242 42-305)
T6 construct: Bought; Gln42-Val295 counted on AAC50061; also called PSGL-1-Fc; PSGL-1-hFc1 chimera; not shown: human IgG1 Fc, Pro100-Lys330
T6 sequence: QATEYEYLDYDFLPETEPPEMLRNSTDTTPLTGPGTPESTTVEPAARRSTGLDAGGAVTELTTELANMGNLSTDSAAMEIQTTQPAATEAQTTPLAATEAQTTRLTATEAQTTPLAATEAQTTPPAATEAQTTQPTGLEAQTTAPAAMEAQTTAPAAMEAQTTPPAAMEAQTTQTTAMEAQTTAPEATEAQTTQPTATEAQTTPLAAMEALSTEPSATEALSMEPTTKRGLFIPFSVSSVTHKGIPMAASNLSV


Experiments:
[1] = biological target: T1, Biotin PSGL-1(42-62) D52A peptide; experiment: ELISA, streptavidin-bound Ala peptide
[2] = biological target: T1, Biotin PSGL-1(42-62) D52A peptide; experiment: ELISA; against wild-type PSGL-1 42-62
[3] = biological target: T2, Biotin PSGL-1(42-62) P55A peptide; experiment: ELISA, streptavidin-bound Ala peptide
[4] = biological target: T2, Biotin PSGL-1(42-62) P55A peptide; experiment: ELISA; against wild-type PSGL-1 42-62
[5] = biological target: T3, Biotin Y46,48,51(SO3) PSGL-1(42-62) …; experiment: ELISA, plate-bound target
Experimental: (§1) Two ELISA methods were performed. One procedure detected mAb binding to its plate-immobilized target and the other measured the immobilized antibody's ability to capture biotinylated PSGL-1₄₂₋₆₂. […] The plate was incubated for 45 min at 37° C. Plates were washed 3 times with wash buffer (PBS containing 0.05% tween 20, pH 7.4) and a single concentration (2 to 500 nM) or serially diluted (0.002-100 nM) anti-PSGL-1 mAb was added (25 ul/well) in assay buffer into appropriate wells. The plate was incubated for 45 min at 37° C., washed 3 times, and an appropriate HRP-conjugated secondary antibody added (25 ul/well) (HRP goat anti-mouse or anti-human IgG). After 45 min incubation at 37° C., the plate was washed, and antibody bound to plate-immobilized target was determined at A450 nm using HRP substrate (3,3′,5,5′-etramethylbenzidine (TMB)). For each antibody, duplicate values were averaged and assay background was subtracted. Except for the following, ELISAs involving plate-immobilized mAb capturing of biotinylated PSGL-1₄₂₋₆₂ peptides was performed in the same manner as described above: 3 ug/mL/25 ul per well of mAb was coated directly onto microtiter plate wells; biotinylated unmodified or sulfotyrosine PSGL-1₄₂₋₆₂ was serially diluted (3 nM-3 uM) into appropriate wells, and antibody-bound peptide was detected using HRP-streptavidin (Jackson Immunoresearch, Cat. #016-030-084).

[6] = biological target: T4, Biotin PSGL-1(42-62) peptide, unmodified; experiment: ELISA, plate-bound target
Experimental: as §1

[7] = biological target: PSGL-1(ECD)-hFc1 M119A protein (Sino Biological) (human); experiment: ELISA, plate-bound peptide or protein
Experimental: (§2) A typical ELISA experiment involved binding of a single concentration or serially diluted mAb in assay buffer (3% BSA in PBS containing 0.05% Tween®20, pH 7.4) onto BSA blocked high binding microtiter plate half-wells (Corning Cat. #3690), which contained PSGL-1 protein or streptavidin-immobilized biotin peptide. After incubation for 45 min. at 37° C., the plate was washed 3 times with wash buffer (PBS containing 0.05% Tween®20, pH 7.4), and an appropriate HRP-conjugated secondary antibody added (25 ul/well) (HRP goat anti-mouse or anti-human IgG). After 45 min. incubation at 37° C., the plate was washed and antibody bound to plate-immobilized target was determined at A450 nm using HRP substrate (3,3′5,5′-tetramethylbenzidine (TMB)). For each antibody, duplicate values were averaged and assay background subtracted.

[8] = biological target: PSGL-1(ECD)-hFc1 I121A protein (Sino Biological) (human); experiment: ELISA, plate-bound peptide or protein
Experimental: as §2

[9] = biological target: PSGL-1(ECD)-hFc1 S116A protein (Sino Biological) (human); experiment: ELISA, plate-bound peptide or protein
Experimental: as §2

[10] = biological target: T5, PSGL-1(42-62) N-terminal peptide, …; experiment: binding to PSGL-1 42-62
[11] = biological target: T6, Recombinant human PSGL-1(ECD)-hFc1 (R&D …); experiment: Octet tandem; competitor 19N05
Experimental: (§3) Antibody binning was performed by ForteBio Octet® using a tandem assay format, with anti-human IgG biosensor-immobilized PSGL-1(ECD)-hFc1 protein, binding of competitor mAb followed by analyte antibody. As competition controls, the same antibody was competed against itself, and mAb competition was performed bidirectionally.
(§4) Antibody binning by tandem octet was performed by immobilizing 10 ug/mL PSGL-1(ECD)-hFc1 (R&D Systems, Cat. #3345-PS) in PBS, pH 7.4, onto anti-human IgG capture biosensors (ForteBio, Cat. #18-5060), binding of 100 nM competitor antibody for 300 sec., followed by binding of 100 nM of analyte mAb for 300 s in kinetic buffer (0.1% BSA in PBS containing 0.02% tween 20 and 0.05% sodium azide, pH 7.4). Synagis (Johnson et al. (1997) J. Infect. Dis. 176:1215-1224) served as a negative control mAb for competition. An Fc quench step (0.25 mg/mL human IgG Fcl; BioXcell, Cat. #BE0096, in kinetic buffer) was included when human mAbs were tested to prevent high background from the antibodies binding to the anti-human IgG biosensor. Biosensor regeneration buffer consisted of 10 mM glycine, pH 2.0.

[12] = biological target: T6, Recombinant human PSGL-1(ECD)-hFc1 (R&D …); experiment: Octet tandem; competitor 19J23
Experimental: as §3, §4

| Binder | EC50 [7] | EC50 [8] | EC50 [9] | binding result [10] | % binding of analyte mAb [11] | % binding of analyte mAb [12] | also measured |
| --- | --- | --- | --- | --- | --- | --- | --- |
| 18F02 (antibody, V domains shown, From mouse immunisation; only variable domains given) VH: QVQLQQPGAELVKPGASVKLSCKASGYTFTSYWMHWVKQRPGQGLEWIGMIHPNSGRTNYNEKFKSKATLTVDKSSSTAYMQLSSLTSEDSAVYYCARSDYWGQGTTLTVSS VL: DIVMTQAAFSNPVTLGTSASISCRSSKSLLHSDGITYLYWFLQRPGQSPQLLIYRMSNLASGVPDRFSGSGSGTDFTLRISRVEAEDVGVYYCAQMLEFPRTFGGGTKLEIK |  |  |  |  |  |  | EC50 [1]: > 10 nM; EC50Ala/EC50 wt [2]: > 100 fold |
| 16L15 (antibody, V domains shown, From mouse immunisation; only variable domains given) VH: DVKLVESGGGLVKLGGSLKLSCAASGFTFSSYYMSWVRQTPEKRLEWVATISNGGGSTYYPDSVKDRFTISRDNAKNTLYLQMSSLNSEDTAVYYCAKPLYYSNPWFAYWGQGTLVTVSA VL: DVLLTQTPLSLPVSLGDQASISCRSSQSIVHSNGNTYLEWYLQKPGQSPKLLIYKVSNRFSGVPDRFSGSGSGTDFTLKISRVEAEDLGVYYCFQGSHVPRTFGGGTKLEIK |  |  |  |  |  |  | EC50 [1]: 19.9 nM; EC50Ala/EC50 wt [2]: 21 fold |
| 19I01 (antibody, V domains shown, From mouse immunisation; only variable domains given; also called 19101) VH: EVQLVESGGGLVKPGGSRKLSCAASGFTFSDYGMHWVRQAPEKGLEWVAYISSGSSTIYYADTVKGRFTISRDNAKNTLFLQMTSLRSEDTAMYYCARGVDGYWGQGTTLTVSS VL: DVVMTQTPLSLPVSLGDQASISCRSSQSLVHSNGNTYLHWYLQKPGQSPKFLIYKVSNRFSGVPDRFSGSGSGTDFTLKISRVEAEDLGVYFCSQTTHVPLTFGAGTKLELK |  |  |  |  |  |  | EC50 [1]: 3.18 nM; EC50 [3]: 8.21 nM; EC50Ala/EC50 wt [2]: 15.9 fold; EC50Ala/EC50 wt [4]: 68.4 fold |
| 10F01 (antibody, IgG4, V domains shown) VH: EVQLVQSGGGLVQPGGSLRLSCAASGFTFSSYAMSWVRQAPGKGLEWVSALRGGDGGTYHADSVKGRFTISGDSSKNTLYLQMNSLRAEDTAVYYCARRMVGAAYAFDIWGQGTMVTVSS VL: LPVLTQPHSVSESPGKTVTISCTRSSGSIADNFVQWYRQRPGSAPTTVIYEGDQRPSGVPGRFSGSIDSSSNSASLTISGLQTDDEADYYCQSFDSYNRRTHVVFGGGTKLTVL |  |  |  |  |  |  | EC50 [5]: 0.13 nM; EC50 [6]: > 500 nM |
| 03D07 (antibody, IgG4, V domains shown) VH: EVKLLESGGGLVQPGGSLRLSCAASGFTFSSYALSWVRQAPGKGLEWVSAISGSGGNTYYADSVKGRFTISRDNSKNTLYLQMNSLRAEDTAVYYCAKVVGATNYWGQGTLVTVSS VL: DIVMTQTPLSLPVTLGQPASISCRSSQSLVYSDGHTYLSWFHQRPGQSPRRLIYKVSIRDSGVPDRFSGSGSGTDFTLKISRVEAEDVGVYYCMQRLQIPLTFGGGTKVEIK |  |  |  |  |  |  | EC50 [5]: 0.13 nM; EC50 [6]: > 20 nM |
| 43B6 (antibody, V domains shown, Control anti-PSGL-1 mAb, recombinant; only variable domains given; also called 43B3) VH: EVQLQQSGPDLVKPGALVKISCKASGYSFTAYYIHWVKQSHGKSLEWIGRVNPNTGGTSYNPKFKGKAILNVDKSSSTAYMELRSLTSEDSAVYYCARSGSPYYRYDDWGQGTTLTVSS VL: ENVLTQSPAIMSASPGEKVTMTCRASSTVNSTYLHWFQQKSGASPKLWIYGSSNLASGVPARFSGSGSGTSYSLTISSVEAEDAATYYCQQYSGYPLTFGAGTTLELK |  |  |  |  |  |  | binding result [1]: no binding; EC50 [3]: 1.8 nM; EC50Ala/EC50 wt [4]: 9.5 fold |
| 9F9 (antibody, V domains shown, Control anti-PSGL-1 mAb, recombinant; only variable domains given; also called 9F6) VH: EVQLVETGGGLVQPKGSLKLSCAASGFTFNTNAMNWVRQAPGKGLEWVARIRSKSNNYATYYADSVKDRFTISRDDTQSMIYLQMNNLKTEDTGMYYCVRGGSYWYFDVWGAGTTVTVSS VL: DVLMTQTPLSLPVSLGDQASISCRSSQSIVNSNGNTYLEWYLQKPGQSPKLLIYKVSNRFSGVPDRFSGSGSGTDFTLKISRVEAEDLGVYYCFQGSHVPWTFGGGTKLEIK |  |  |  |  |  |  | binding result [1]: no binding; EC50 [3]: > 10 nM; EC50Ala/EC50 wt [4]: > 100 fold |
| 16E17 (antibody, V domains shown, From mouse immunisation; only variable domains given) VH: QIQLVQSGPELKKPGETVKISCKASGYAFTTYGMSWVKQAPGKGLKWMGWINTYSGVPKYADDFKGRFAFSLETSASTAYLHINNLKNEDTATYFCGRHYYGSSYFDYWGQGTTLTVSS VL: not shown | 0.87 nM | 1.54 nM | 0.8 nM | no binding | 5.1% | 103% |  |
| 18K07 (antibody, V domains shown, From mouse immunisation; only variable domains given) VH: QIQLVQSGPELKKPGETVKISCEASGYTFTTYGMNWVKQAPGKGLKWMGWINTYSGVPTYADDFQGRFAFSVETSATTAYLQINNLKNEDAATYFCARSDDTYYGFAYWGQGTLVTVSA VL: not shown | 0.46 nM | 0.51 nM | 0.58 nM | no binding | 0% | 92.9% |  |
| 19L04 (antibody, IgG4, V domains shown, From mouse immunisation; only variable domains given) VH: QIQLVQSGPELKKPGETVKISCKASGYTFTTYGMSWVKQAPGKGLKWMGWINTYSGVPTYADDFKGRFAFSLETSASTAYLQINNLKIEDTATYFCARHYYGSHYFDYWGQGTTLTVSS VL: DIMMTQSPSSLAMSVGQKVTLRCKSSQSLLNSSNQKNYLAWYQQKPGQSPKLLVYFASTRESGVPVRFIGSGSGTDFTLTISSMQAEDLADYFCQQHYFSPLTFGAGTKLELK | 0.86 nM | 0.97 nM | 0.98 nM | no binding | 44.3% | 104% |  |
| 19N05 (antibody, V domains shown, From mouse immunisation; only variable domains given) VH: QIQLVQSGPELKKPGETVKISCKASGYTFTTYGMSWVKQAPGKGLKWMGWINTYSGVPTFADDFKGRFAFSLETSASTAYLQINNLKNEDTATFFCARNYYGNHYFDYWGQGTTLTVSS VL: DVQITQSPSYLAASPGETISINCRASNNINKYLAWYQEKPGKTNKLLIYSGSTLQSGIPSRFSGSGSGTDFTLTISSLEPEDFAMYHCQQHNYYPLTFGAGTKLELK | 0.51 nM | 0.53 nM | 0.55 nM | no binding | 69.4% | 125% |  |
